Columns and labels:
Experiment in all cases: IP/MS, LZTR1 R810W-FLAG, U87
SREBF2 = target: T1, SREBF2 (human, UniProt Q12772 1-1141, limits assumed)
T1 sequence (looked up): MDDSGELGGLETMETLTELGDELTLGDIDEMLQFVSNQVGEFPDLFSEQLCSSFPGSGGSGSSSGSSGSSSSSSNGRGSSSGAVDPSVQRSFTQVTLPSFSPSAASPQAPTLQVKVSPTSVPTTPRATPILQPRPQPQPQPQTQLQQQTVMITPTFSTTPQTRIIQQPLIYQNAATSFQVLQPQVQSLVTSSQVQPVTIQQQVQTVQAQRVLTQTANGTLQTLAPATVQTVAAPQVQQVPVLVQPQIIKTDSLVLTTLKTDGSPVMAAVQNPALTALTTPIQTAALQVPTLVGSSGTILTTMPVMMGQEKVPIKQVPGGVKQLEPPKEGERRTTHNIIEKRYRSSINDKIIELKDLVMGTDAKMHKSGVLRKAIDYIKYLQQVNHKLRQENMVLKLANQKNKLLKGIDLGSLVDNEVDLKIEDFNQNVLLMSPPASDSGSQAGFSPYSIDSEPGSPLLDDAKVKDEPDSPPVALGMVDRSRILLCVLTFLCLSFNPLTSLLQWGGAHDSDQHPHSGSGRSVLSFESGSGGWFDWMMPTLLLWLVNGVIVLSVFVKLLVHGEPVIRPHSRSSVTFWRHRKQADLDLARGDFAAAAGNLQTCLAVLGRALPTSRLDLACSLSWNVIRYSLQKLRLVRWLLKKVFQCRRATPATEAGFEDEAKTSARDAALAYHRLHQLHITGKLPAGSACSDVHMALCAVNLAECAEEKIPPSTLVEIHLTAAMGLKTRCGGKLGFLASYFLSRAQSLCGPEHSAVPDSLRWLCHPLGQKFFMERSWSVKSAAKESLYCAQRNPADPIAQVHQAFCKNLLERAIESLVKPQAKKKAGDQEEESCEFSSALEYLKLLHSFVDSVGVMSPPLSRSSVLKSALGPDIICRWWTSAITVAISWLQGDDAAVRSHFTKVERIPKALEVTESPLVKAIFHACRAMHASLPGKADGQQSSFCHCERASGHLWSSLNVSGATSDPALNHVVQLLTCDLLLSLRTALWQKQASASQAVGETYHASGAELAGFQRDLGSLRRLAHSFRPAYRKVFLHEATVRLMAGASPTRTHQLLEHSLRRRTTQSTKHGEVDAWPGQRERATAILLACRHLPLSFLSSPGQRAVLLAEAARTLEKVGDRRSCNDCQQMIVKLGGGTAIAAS
Summary of the method: (§1)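 Extracted peptides in 3% acetonitrile/0.1% formic acid ran on a 50 cm C18 column into an Orbitrap Fusion, with MaxQuant identification and spectral counting.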

TUBGCP2 = TUBGCP2 (human, UniProt Q9BSJ2 1-902, limits assumed)
Sequence of TUBGCP2 (Q9BSJ2 whole entry): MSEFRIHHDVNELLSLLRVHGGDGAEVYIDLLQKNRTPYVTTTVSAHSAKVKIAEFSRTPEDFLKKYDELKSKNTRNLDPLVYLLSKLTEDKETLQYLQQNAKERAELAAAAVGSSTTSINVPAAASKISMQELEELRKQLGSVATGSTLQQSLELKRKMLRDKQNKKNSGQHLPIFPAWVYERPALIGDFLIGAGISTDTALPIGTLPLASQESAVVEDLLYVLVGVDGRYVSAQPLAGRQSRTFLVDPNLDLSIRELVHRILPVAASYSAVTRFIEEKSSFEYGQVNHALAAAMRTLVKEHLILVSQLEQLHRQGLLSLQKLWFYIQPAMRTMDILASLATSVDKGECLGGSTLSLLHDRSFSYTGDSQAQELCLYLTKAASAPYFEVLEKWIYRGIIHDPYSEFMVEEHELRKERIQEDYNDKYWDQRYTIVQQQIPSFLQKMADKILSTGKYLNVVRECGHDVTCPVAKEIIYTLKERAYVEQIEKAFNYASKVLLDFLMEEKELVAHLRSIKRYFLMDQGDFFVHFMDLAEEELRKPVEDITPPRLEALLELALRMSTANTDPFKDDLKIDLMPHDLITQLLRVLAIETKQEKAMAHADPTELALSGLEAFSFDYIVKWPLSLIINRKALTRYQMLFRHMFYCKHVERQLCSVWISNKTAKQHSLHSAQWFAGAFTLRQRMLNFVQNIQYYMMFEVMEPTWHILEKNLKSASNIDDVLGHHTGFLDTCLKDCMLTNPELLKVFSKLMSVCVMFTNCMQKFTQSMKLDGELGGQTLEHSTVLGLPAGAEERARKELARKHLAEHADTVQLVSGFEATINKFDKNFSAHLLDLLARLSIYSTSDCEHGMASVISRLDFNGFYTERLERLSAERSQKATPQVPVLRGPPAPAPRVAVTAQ
Summary of the method: as §1

EPG5 = EPG5 (human, UniProt Q9HCE0 1-2579, limits assumed)
Sequence of EPG5 (Q9HCE0 whole entry): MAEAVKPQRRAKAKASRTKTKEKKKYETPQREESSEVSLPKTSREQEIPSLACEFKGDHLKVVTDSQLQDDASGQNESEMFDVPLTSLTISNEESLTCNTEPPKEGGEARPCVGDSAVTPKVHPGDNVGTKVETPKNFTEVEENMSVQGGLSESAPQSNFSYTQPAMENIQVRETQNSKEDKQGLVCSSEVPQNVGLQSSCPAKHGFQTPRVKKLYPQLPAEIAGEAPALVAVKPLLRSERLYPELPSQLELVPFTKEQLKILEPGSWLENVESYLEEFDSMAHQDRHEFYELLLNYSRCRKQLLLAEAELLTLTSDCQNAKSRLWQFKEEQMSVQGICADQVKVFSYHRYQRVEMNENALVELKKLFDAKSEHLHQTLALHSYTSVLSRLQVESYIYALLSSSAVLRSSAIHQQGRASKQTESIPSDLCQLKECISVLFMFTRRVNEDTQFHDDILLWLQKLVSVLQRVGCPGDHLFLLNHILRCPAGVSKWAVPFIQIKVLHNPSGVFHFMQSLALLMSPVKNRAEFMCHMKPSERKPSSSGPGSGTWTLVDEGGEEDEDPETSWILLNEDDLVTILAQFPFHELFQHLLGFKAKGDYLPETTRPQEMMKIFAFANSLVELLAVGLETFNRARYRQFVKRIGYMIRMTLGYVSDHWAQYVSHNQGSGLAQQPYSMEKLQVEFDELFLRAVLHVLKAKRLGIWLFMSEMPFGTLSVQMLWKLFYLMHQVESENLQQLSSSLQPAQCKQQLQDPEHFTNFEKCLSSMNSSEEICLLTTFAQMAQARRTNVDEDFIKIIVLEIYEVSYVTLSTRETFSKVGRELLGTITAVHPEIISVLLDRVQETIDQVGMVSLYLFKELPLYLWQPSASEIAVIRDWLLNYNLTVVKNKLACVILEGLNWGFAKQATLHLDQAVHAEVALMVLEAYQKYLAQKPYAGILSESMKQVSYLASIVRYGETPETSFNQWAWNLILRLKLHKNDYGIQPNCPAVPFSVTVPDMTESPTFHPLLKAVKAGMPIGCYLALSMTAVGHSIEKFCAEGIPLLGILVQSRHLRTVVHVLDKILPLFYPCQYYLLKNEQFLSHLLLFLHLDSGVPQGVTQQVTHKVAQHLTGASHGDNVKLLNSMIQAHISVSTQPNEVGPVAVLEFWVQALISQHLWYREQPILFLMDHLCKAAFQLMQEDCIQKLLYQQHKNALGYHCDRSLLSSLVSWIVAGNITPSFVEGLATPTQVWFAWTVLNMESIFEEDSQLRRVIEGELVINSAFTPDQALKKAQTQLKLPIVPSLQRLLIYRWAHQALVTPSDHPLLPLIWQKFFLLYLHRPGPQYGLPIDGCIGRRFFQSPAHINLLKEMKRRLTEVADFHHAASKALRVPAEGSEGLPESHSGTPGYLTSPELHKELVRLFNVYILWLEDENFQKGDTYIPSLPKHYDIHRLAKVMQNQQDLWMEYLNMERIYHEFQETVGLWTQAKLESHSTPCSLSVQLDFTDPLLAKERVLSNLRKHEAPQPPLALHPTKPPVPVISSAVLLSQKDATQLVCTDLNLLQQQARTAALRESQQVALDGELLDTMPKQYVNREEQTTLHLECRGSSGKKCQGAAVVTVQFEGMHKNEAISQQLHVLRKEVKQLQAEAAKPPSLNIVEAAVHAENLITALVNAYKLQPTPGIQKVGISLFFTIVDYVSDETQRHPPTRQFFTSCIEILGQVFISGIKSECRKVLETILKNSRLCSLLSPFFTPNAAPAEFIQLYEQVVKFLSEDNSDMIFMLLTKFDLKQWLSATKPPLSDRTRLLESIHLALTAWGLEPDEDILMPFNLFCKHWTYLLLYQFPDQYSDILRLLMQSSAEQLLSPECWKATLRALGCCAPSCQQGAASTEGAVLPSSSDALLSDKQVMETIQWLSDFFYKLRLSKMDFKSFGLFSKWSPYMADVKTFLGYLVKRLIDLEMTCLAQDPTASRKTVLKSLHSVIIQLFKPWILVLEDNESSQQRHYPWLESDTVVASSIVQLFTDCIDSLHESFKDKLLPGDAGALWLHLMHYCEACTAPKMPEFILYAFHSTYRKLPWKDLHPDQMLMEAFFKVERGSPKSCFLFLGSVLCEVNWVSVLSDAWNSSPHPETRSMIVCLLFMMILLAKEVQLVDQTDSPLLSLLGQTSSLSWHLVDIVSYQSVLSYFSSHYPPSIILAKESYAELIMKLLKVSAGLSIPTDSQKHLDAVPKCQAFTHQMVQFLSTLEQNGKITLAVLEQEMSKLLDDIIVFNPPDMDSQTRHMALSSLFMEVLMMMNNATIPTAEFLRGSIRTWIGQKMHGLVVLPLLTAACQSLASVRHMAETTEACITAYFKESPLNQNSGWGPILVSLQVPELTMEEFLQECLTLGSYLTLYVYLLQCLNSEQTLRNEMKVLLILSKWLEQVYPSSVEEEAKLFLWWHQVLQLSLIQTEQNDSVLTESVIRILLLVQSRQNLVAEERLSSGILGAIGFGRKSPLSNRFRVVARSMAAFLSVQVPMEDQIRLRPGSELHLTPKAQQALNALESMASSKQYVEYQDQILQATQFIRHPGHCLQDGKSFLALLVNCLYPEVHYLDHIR
Summary of the method: as §1

ABR = target: T2, ABR (human, UniProt Q12979 1-859, limits assumed)
T2 sequence (looked up): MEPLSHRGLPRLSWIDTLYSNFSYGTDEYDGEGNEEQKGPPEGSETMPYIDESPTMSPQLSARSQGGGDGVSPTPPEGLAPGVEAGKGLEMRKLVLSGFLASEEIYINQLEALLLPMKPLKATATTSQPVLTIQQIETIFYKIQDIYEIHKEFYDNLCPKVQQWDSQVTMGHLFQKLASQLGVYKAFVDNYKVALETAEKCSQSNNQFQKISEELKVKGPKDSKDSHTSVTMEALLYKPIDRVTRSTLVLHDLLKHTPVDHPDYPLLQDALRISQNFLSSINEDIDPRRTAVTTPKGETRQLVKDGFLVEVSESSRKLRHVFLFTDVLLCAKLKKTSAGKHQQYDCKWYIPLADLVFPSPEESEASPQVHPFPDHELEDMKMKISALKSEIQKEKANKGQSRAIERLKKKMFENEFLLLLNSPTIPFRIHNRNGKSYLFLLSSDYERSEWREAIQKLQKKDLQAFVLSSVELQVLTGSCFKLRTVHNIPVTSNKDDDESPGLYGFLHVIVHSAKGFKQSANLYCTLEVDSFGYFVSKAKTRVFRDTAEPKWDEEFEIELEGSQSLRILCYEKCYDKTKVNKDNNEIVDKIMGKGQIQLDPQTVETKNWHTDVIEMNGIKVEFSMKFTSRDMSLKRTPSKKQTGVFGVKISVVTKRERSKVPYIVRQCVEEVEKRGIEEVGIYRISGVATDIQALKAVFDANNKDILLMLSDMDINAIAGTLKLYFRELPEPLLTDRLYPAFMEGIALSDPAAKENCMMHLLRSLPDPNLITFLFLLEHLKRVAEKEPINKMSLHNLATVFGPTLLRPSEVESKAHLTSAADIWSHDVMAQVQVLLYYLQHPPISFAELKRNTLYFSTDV
Summary of the method: as §1

TRRAP = TRRAP (human, UniProt Q9Y4A5 2-3859, limits assumed)
Summary of the method: as §1

MAP4K4 = MAP4K4 (human, UniProt O95819 2-1239, limits assumed)
Sequence of MAP4K4 (O95819 2-1239 limits assumed): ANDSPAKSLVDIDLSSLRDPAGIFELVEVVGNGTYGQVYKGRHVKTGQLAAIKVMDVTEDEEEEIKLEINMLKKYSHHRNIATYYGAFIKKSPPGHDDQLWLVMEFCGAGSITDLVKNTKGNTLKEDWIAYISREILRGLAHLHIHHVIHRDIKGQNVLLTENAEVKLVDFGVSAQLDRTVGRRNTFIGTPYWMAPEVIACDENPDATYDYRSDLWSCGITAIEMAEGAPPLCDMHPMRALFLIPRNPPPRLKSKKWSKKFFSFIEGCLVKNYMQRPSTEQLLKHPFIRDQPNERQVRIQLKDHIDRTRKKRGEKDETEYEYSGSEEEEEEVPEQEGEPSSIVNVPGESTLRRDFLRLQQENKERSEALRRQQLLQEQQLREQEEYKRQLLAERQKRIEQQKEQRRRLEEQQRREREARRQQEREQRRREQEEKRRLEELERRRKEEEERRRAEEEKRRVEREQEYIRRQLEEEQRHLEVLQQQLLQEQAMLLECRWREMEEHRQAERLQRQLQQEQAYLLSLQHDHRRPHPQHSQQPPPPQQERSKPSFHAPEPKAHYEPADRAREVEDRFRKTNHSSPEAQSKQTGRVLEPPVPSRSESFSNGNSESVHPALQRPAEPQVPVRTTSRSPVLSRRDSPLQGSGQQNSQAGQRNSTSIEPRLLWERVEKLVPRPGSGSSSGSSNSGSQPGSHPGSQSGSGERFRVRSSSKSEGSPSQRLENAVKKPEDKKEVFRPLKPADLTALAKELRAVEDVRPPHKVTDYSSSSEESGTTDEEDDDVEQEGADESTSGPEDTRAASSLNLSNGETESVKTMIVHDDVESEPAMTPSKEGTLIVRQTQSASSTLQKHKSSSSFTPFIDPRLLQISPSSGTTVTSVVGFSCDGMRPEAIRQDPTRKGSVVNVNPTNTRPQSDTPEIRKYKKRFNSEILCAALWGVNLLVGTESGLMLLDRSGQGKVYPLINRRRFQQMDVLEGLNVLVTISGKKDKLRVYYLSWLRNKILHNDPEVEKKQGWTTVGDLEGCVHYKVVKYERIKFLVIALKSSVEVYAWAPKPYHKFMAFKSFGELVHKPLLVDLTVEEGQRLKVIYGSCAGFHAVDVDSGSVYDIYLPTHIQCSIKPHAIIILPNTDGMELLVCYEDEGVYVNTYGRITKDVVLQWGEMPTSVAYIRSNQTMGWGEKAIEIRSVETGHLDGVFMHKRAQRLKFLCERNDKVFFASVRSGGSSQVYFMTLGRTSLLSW
Summary of the method: as §1

Measured: binding result

B1: LZTR1 R810W-FLAG (other, human, UniProt Q8N653 1-840, looked up)
chain: MAGPGSTGGQIGAAALAGGARSKVAPSVDFDHSCSDSVEYLTLNFGPFETVHRWRRLPPCDEFVGARRSKHTVVAYKDAIYVFGGDNGKTMLNDLLRFDVKDCSWCRAFTTGTPPAPRYHHSAVVYGSSMFVFGGYTGDIYSNSNLKNKNDLFEYKFATGQWTEWKIEGRLPVARSAHGATVYSDKLWIFAGYDGNARLNDMWTIGLQDRELTCWEEVAQSGEIPPSCCNFPVAVCRDKMFVFSGQSGAKITNNLFQFEFKDKTWTRIPTEHLLRGSPPPPQRRYGHTMVAFDRHLYVFGGAADNTLPNELHCYDVDFQTWEVVQPSSDSEVGGAEVPERACASEEVPTLTYEERVGFKKSRDVFGLDFGTTSAKQPTQPASELPSGRLFHAAAVISDAMYIFGGTVDNNIRSGEMYRFQFSCYPKCTLHEDYGRLWESRQFCDVEFVLGEKEECVQGHVAIVTARSRWLRRKITQARERLAQKLEQEAAPVPREAPGVAAGGARPPLLHVAIREAEARPFEVLMQFLYTDKIKYPRKGHVEDVLLIMDVYKLALSFQLCRLEQLCRQYIEASVDLQNVLVVCESAARLQLSQLKEHCLNFVVKESHFNQVIMMKEFERLSSPLIVEIVRRKQQPPPRTPLDQPVDIGTSLIQDMKAYLEGAGAEFCDITLLLDGHPRPAHKAILAARSSYFEAMFRSFMPEDGQVNISIGEMVPSRQAFESMLRYIYYGEVNMPPEDSLYLFAAPYYYGFYNNRLQAYCKQNLEMNVTVQNVLQILEAADKTQALDMKRHCLHIIVHQFTKVSKLPTLWSLSQQLLLDIIDSLASHISDKQCAELGADI
notes: Stably expressed in U87 cells by lentivirus; also called LZTR1-FLAG-R810W; LZTR1 RW; not shown: FLAG tag
binds: SREBF2 | TUBGCP2 | EPG5 | ABR | TRRAP | MAP4K4

— US20250262210A1 (TRUSTEES OF COLUMBIA UNIVERSITY IN THE CITY OF NEW YORK, published 2025)
